These binders were tested against T1, soluble human EREG fragment having a mature EGF domain structure (R&D Systems cat. no. 1195-EP/CF) (human, UniProt O14944 63-108) (assay: competitive ELISA on coated soluble human EREG fragment).
T1 construct: bought; coated on ELISA plates; also called human epiregulin; recombinant human Epiregulin
Procedure: The soluble human EREG fragment having a mature EGF domain structure (the polypeptide of SEQ ID NO: 34 which corresponds to ⁶³Val to ¹⁰⁸Leu) was purchased from R&D Systems (cat. no. 1195-EP/CF). The soluble human EREG fragment was used to coat nunc immunoplates, and after blocking with a BSA-containing solution, the competitive binding reactivity between mouse hybridoma-derived EP27 and the purified humanized anti-EREG antibody was analyzed. Mouse hybridoma-derived EP27 and a purified humanized anti-EREG antibody were added to the plates, and after two hours of incubation, the plates were washed; and an alkaline phosphatase-labeled anti-human IgG antibody (Zymed) was added to each well of the plates and then allowed to react. Each well was washed, and then the amount of bound antibody (A405/655 detection value) was determined by addition of a test reagent, Sigma p-Nitrophenyl phosphate Tablets.

T1 sequence (O14944 63-108 limits assumed): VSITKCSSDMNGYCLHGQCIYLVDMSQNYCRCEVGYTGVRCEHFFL

Binder	binding result
HY-G1d/L32-k (antibody, human IgG1, kappa, V domains shown, also called HY-G1/L32-k) VH: QDQLVQSGAEVKKPGASVKVSCKASGFNIKDTYIQWVRQAPGQGLEWMGRIDPLNGNTKYVPKFQGRVTITADTSTNTAYMELSSLRSEDTAVYYCVRSGTLFDFWGQGTLVTVSS VL: DIQMTQSPSSLSASVGDRVTITCKASQDIHKYIAWYQQKPGQAPRLLIQYTSTLQPGVPSRFSGSGSGTDYTFTISSLQPEDIATYYCLQYEQLRTFGGGTKVEIKR	binds
HY-G1d/L12-k (antibody, human IgG1, kappa, V domains shown) VH: QDQLVQSGAEVKKPGASVKVSCKASGFNIKDTYIQWVRQAPGQGLEWMGRIDPLNGNTKYVPKFQGRVTITADTSTNTAYMELSSLRSEDTAVYYCVRSGTLFDFWGQGTLVTVSS VL: DIQMTQSPSSLSASVGDRVTITCKASQDIHKYIAWYQQKPGQAPRLLIQYTSTLEPGVPSRFSGSGSGTDYTFTISSLQPEDIATYYCLQYDNLRTFGGGTKVEIKR	binds
HY-G1d/L30-k (antibody, human IgG1, kappa, V domains shown, the text names only HY-G1d/L32-k as obtained; also called HY-G1/L30-k) VH: QDQLVQSGAEVKKPGASVKVSCKASGFNIKDTYIQWVRQAPGQGLEWMGRIDPLNGNTKYVPKFQGRVTITADTSTNTAYMELSSLRSEDTAVYYCVRSGTLFDFWGQGTLVTVSS VL: DIQMTQSPSSLSASVGDRVTITCKASQDIHKYIAWYQQKPGQAPRLLIQYTSTLQPGVPSRFSGSGSGTDYTFTISSLQPEDIATYYCLQYENLRTFGGGTKVEIKR	binds
H87-G1d/L21-k (antibody, human IgG1, kappa, V domains shown) VH: QDQLVQSGAEVKKPGASVKVSCKASGFNIKDTYIQWVRQAPGQGLEWMGRIDPLTGQTKYQEKFEGRVTITADTSTNTAYMELSSLRSEDTAVYYCVRSGTSFDFWGQGTLVTVSS VL: DIQMTQSPSSLSASVGDRVTITCQASQDIHKYIAWYQQKPGQAPRLLIQYTSTLQPGVPSRFSGSGSGTDYTFTISSLQPEDIATYYCLQYDNLRTFGGGTKVEIER	binds
H87-G1d/L37-k (antibody, human IgG1, kappa, V domains shown) VH: QDQLVQSGAEVKKPGASVKVSCKASGFNIKDTYIQWVRQAPGQGLEWMGRIDPLTGQTKYQEKFEGRVTITADTSTNTAYMELSSLRSEDTAVYYCVRSGTSFDFWGQGTLVTVSS VL: DIQMTQSPSSLSASVGDRVTITCQASQDIHKYIAWYQQKPGQAPRLLIQYTSTLQPGVPSRFSGSGSGTDYTLTISSLQPEDFATYYCLQYDNLRTFGGGTKVEIKR	binds
HY-G1d/L2-k (antibody, human IgG1, kappa, V domains shown) VH: QDQLVQSGAEVKKPGASVKVSCKASGFNIKDTYIQWVRQAPGQGLEWMGRIDPLNGNTKYVPKFQGRVTITADTSTNTAYMELSSLRSEDTAVYYCVRSGTLFDFWGQGTLVTVSS VL: DIQMTQSPSSLSASVGDRVTITCSASQDIHKYIAWYQQKPGQAPRLLIQYTSTLQPGVPSRFSGSGSGTDYTFTISSLQPEDIATYYCLQYDNLRTFGGGTKVEIKR	binds
H71-G1d/LB-k (antibody, human IgG1, kappa, V domains shown, also called H71-G1/LB-k) VH: QDQLVQSGAEVKKPGASVKVSCKASGFNIKATYIQWVRQAPGQGLEWMGRIDPLNGNTKYVPKFQGRVTITADTSTNTAYMELSSLRSEDTAVYYCVRSGTLFDFWGQGTLVTVSS VL: DIQMTQSPSSLSASVGDRVTITCKASQDIHKYIAWYQQKPGQAPRLLIQYTSTLQPGVPSRFSGSGSGTDYTFTISSLQPEDIATYYCLQYDNLRTFGGGTKVEIKR	binds

These binders were tested against T2, cynomolgus EREG (Biacore analyte) (cynomolgus monkey, UniProt O14944 63-108 (human entry), limits assumed) (assay: SPR (Biacore T100), antibody captured on Protein A, EREG as analyte; KD for monkey EREG over KD for human EREG).
T2 construct: also called cynomolgus monkey EREG; cEREG
T2 sequence (O14944 other isoform, or with tags, fused parts or gaps limits assumed): as the sequence (O14944 63-108 limits assumed) above, with S7N, F45Y counted along it
Procedure: The affinity and association rate constant of an anti-EREG antibody for an antigen were measured by the single-cycle kinetics method of surface plasmon resonance assay using Biacore™-T100 (GE Healthcare Japan). HBS-EP+ (GE Healthcare Japan) was used for the running buffer, and an amine coupling kit (GE Healthcare Japan) was used to covalently bond Protein A to the CM5 chip (carboxymethyl dextran-coated chip). Each anti-EREG antibody was prepared so that approximately 350 RU will be captured by Protein A. Human EREG or cynomolgus EREG used as the analyte was prepared at 0, 0.7, 1.4, 2.8, 5.6, and 11.2 nM using HBS-EP+. Measurement was carried out by first allowing Protein A to capture the antibody solution, and then at a flow rate of 30 μL/min, successively injecting each of the 0, 0.7, 1.4, 2.8, 5.6, and 11.2 nM human EREG or cynomolgus EREG solutions for three minutes to allow reaction to take place. Then, the solution was switched to HBS-EP+, and the dissociation phase was measured for 15 minutes. After completion of the dissociation phase measurement, the sensor chip was washed with 25 mM NaOH and regenerated. The measurement at zero concentration was similarly carried out by allowing Protein A to capture the antibody solution, and performing three-minute HBS-EP+ injections successively for five times to allow reaction to take place, and then switching to HBS-EP+ to measure the dissociation phase for 15 minutes. After completion of the dissociation phase measurement, the sensor chip was washed with 25 mM NaOH and regenerated. A data analysis software exclusively for Biacore, Biacore T100 Evaluation Software Version 2.0.1, was used to perform kinetic analyses to calculate the association rate constant (kₐ), dissociation rate constant (kd), and the rate constant ratio from the obtained sensorgrams. To correct for the day-to-day differences in the measurement values, FIGS. 1 to 4 and Tables 16 and 19 show ratios based on taking the value of the control sample (cH-G1/cL-k) measured on the same day as 1.

Binder	cEREG KD (nM)/hEREG KD (nM)
H111-G1d/L47-k (antibody, human IgG1, kappa, V domains shown) VH: QDQLVQSGAEVKKPGASVKVSCKASGFNIKDTYIQWVRQAPGQGLEWMGRIDPLRGNTKYREKFEGRVTITADTSTNTAYMELSSLRSEDTAVYYCVRSGTLFDFWGQGTLVTVSS VL: DIQMTQSPSSLSASVGDRVTITCKASQDIHKYIAWYQQKPGQAPRLLIQYTSTLQPGVPSRFSGSGSGTDYTFTISSLQPEDIATYYCLQYDRLRTFGGGTKVEIKR	12.6 ratio
H120-G1d/LB-k (antibody, human IgG1, kappa, V domains shown) VH: QDQLVQSGAEVKKPGASVKVSCKASGFNIKDTYIQWVRQAPGQGLEWMGRIDPLRGNTKRREKFEGRVTITADTSTNTAYMELSSLRSEDTAVYYCVRSGTLFDFWGQGTLVTVSS VL: DIQMTQSPSSLSASVGDRVTITCKASQDIHKYIAWYQQKPGQAPRLLIQYTSTLQPGVPSRFSGSGSGTDYTFTISSLQPEDIATYYCLQYDNLRTFGGGTKVEIKR	9.1 ratio
H119-G1d/LB-k (antibody, human IgG1, kappa, V domains shown) VH: QDQLVQSGAEVKKPGASVKVSCKASGFNIKDTYIQWVRQAPGQGLEWMGRIDPLRGNTRYREKFEGRVTITADTSTNTAYMELSSLRSEDTAVYYCVRSGTLFDFWGQGTLVTVSS VL: DIQMTQSPSSLSASVGDRVTITCKASQDIHKYIAWYQQKPGQAPRLLIQYTSTLQPGVPSRFSGSGSGTDYTFTISSLQPEDIATYYCLQYDNLRTFGGGTKVEIKR	9.8 ratio
H112-G1d/LB-k (antibody, human IgG1, kappa, V domains shown) VH: QDQLVQSGAEVKKPGASVKVSCKASGFNIKDTYIQWVRQAPGQGLEWMGRRDPLRGNTKYREKFEGRVTITADTSTNTAYMELSSLRSEDTAVYYCVRSGTLFDFWGQGTLVTVSS VL: DIQMTQSPSSLSASVGDRVTITCKASQDIHKYIAWYQQKPGQAPRLLIQYTSTLQPGVPSRFSGSGSGTDYTFTISSLQPEDIATYYCLQYDNLRTFGGGTKVEIKR	16 ratio
H111-G1d/L48-k (antibody, human IgG1, kappa, V domains shown) VH: QDQLVQSGAEVKKPGASVKVSCKASGFNIKDTYIQWVRQAPGQGLEWMGRIDPLRGNTKYREKFEGRVTITADTSTNTAYMELSSLRSEDTAVYYCVRSGTLFDFWGQGTLVTVSS VL: DIQMTQSPSSLSASVGDRVTITCKASQDIHKYIAWYQQKPGQAPRLLIQYTSTLQPGVPSRFSGSGSGTDYTFTISSLQPEDIATYYCLQYDNRRTFGGGTKVEIKR	8.4 ratio
H121-G1d/LB-k (antibody, human IgG1, kappa, V domains shown) VH: QDQLVQSGAEVKKPGASVKVSCKASGFNIKDTYIQWVRQAPGQGLEWMGRIDPLRGNTKYRERFEGRVTITADTSTNTAYMELSSLRSEDTAVYYCVRSGTLFDFWGQGTLVTVSS VL: DIQMTQSPSSLSASVGDRVTITCKASQDIHKYIAWYQQKPGQAPRLLIQYTSTLQPGVPSRFSGSGSGTDYTFTISSLQPEDIATYYCLQYDNLRTFGGGTKVEIKR	8.3 ratio
H118-G1d/LB-k (antibody, human IgG1, kappa, V domains shown) VH: QDQLVQSGAEVKKPGASVKVSCKASGFNIKDTYIQWVRQAPGQGLEWMGRIDPLRGNRKYREKFEGRVTITADTSTNTAYMELSSLRSEDTAVYYCVRSGTLFDFWGQGTLVTVSS VL: DIQMTQSPSSLSASVGDRVTITCKASQDIHKYIAWYQQKPGQAPRLLIQYTSTLQPGVPSRFSGSGSGTDYTFTISSLQPEDIATYYCLQYDNLRTFGGGTKVEIKR	7.5 ratio
H111-G1d/LB-k (antibody, human IgG1, kappa, V domains shown) VH: QDQLVQSGAEVKKPGASVKVSCKASGFNIKDTYIQWVRQAPGQGLEWMGRIDPLRGNTKYREKFEGRVTITADTSTNTAYMELSSLRSEDTAVYYCVRSGTLFDFWGQGTLVTVSS VL: DIQMTQSPSSLSASVGDRVTITCKASQDIHKYIAWYQQKPGQAPRLLIQYTSTLQPGVPSRFSGSGSGTDYTFTISSLQPEDIATYYCLQYDNLRTFGGGTKVEIKR	9 ratio
H116-G1d/LB-k (antibody, human IgG1, kappa, V domains shown) VH: QDQLVQSGAEVKKPGASVKVSCKASGFNIKDTYIQWVRQAPGQGLEWMGRIDPLRRNTKYREKFEGRVTITADTSTNTAYMELSSLRSEDTAVYYCVRSGTLFDFWGQGTLVTVSS VL: DIQMTQSPSSLSASVGDRVTITCKASQDIHKYIAWYQQKPGQAPRLLIQYTSTLQPGVPSRFSGSGSGTDYTFTISSLQPEDIATYYCLQYDNLRTFGGGTKVEIKR	6.1 ratio
H117-G1d/LB-k (antibody, human IgG1, kappa, V domains shown) VH: QDQLVQSGAEVKKPGASVKVSCKASGFNIKDTYIQWVRQAPGQGLEWMGRIDPLRGRTKYREKFEGRVTITADTSTNTAYMELSSLRSEDTAVYYCVRSGTLFDFWGQGTLVTVSS VL: DIQMTQSPSSLSASVGDRVTITCKASQDIHKYIAWYQQKPGQAPRLLIQYTSTLQPGVPSRFSGSGSGTDYTFTISSLQPEDIATYYCLQYDNLRTFGGGTKVEIKR	7.9 ratio

— US20160159919A1 (Chugai, published 2016)
